Data as given in PMC7948593, “Dynamic multimerization of Dab2–Myosin VI complexes regulates cargo processivity while minimizing cortical actin reorganization” (The Journal of Biological Chemistry, 2021).
Ends that are not written are not given here.

B1: Dab2 myosin interacting region (MIR) with C-terminal eGFP (domain or fragment, human, UniProt P98082 675-713, looked up)
chain: SSGTLSAFASYFNSKVGIPQENADHDDFDANQLLNKINE
notes: Dab2, human, a.a; fluorophore joined through a flexible (Gly-Ser-Gly) x 2 repeat; Held on DNA nanotubes or surfaces through a GFP nanobody (a tool); also called Dab2-MIR-GFP; GFP-tagged Dab2 MIR; not shown: eGFP, C-terminal, kept
B3: Cy3-labeled full-length myosin VI (natural protein, human, UniProt Q9UM54 1-1294, looked up)
chain: MEDGKPVWAPHPTDGFQMGNIVDIGPDSLTIEPLNQKGKTFLALINQVFPAEEDSKKDVEDNCSLMYLNEATLLHNIKVRYSKDRIYTYVANILIAVNPYFDIPKIYSSEAIKSYQGKSLGTRPPHVFAIADKAFRDMKVLKMSQSIIVSGESGAGKTENTKFVLRYLTESYGTGQDIDDRIVEANPLLEAFGNAKTVRNNNSSRFGKFVEIHFNEKSSVVGGFVSHYLLEKSRICVQGKEERNYHIFYRLCAGASEDIREKLHLSSPDNFRYLNRGCTRYFANKETDKQILQNRKSPEYLKAGSMKDPLLDDHGDFIRMCTAMKKIGLDDEEKLDLFRVVAGVLHLGNIDFEEAGSTSGGCNLKNKSAQSLEYCAELLGLDQDDLRVSLTTRVMLTTAGGTKGTVIKVPLKVEQANNARDALAKTVYSHLFDHVVNRVNQCFPFETSSYFIGVLDIAGFEYFEHNSFEQFCINYCNEKLQQFFNERILKEEQELYQKEGLGVNEVHYVDNQDCIDLIEAKLVGILDILDEENRLPQPSDQHFTSAVHQKHKDHFRLTIPRKSKLAVHRNIRDDEGFIIRHFAGAVCYETTQFVEKNNDALHMSLESLICESRDKFIRELFESSTNNNKDTKQKAGKLSFISVGNKFKTQLNLLLDKLRSTGASFIRCIKPNLKMTSHHFEGAQILSQLQCSGMVSVLDLMQGGYPSRASFHELYNMYKKYMPDKLARLDPRLFCKALFKALGLNENDYKFGLTKVFFRPGKFAEFDQIMKSDPDHLAELVKRVNHWLTCSRWKKVQWCSLSVIKLKNKIKYRAEACIKMQKTIRMWLCKRRHKPRIDGLVKVGTLKKRLDKFNEVVSVLKDGKPEMNKQIKNLEISIDTLMAKIKSTMMTQEQIQKEYDALVKSSEELLSALQKKKQQEEEAERLRRIQEEMEKERKRREEDEKRRRKEEEERRMKLEMEAKRKQEEEERKKREDDEKRIQAEVEAQLARQKEEESQQQAVLEQERRDRELALRIAQSEAELISDEAQADLALRRSLDSYPVSKNDGTRPKMTPEQMAKEMSEFLSRGPAVLATKAAAGTKKYDLSKWKYAELRDTINTSCDIELLAACREEFHRRLKVYHAWKSKNKKRNTETEQRAPKSVTDYDFAPFLNNSPQQNPAAQIPARQREIEMNRQQRFFRIPFIRPADQYKDPQSKKKGWWYAHFDGPWIARQMELHPDKPPILLVAGKDDMEMCELNLEETGLTRKRGAEILPRQFEEIWERCGGIQYLQNAIESRQARPTYATAMLQSLLK
modifications: Cy3 label
notes: Myosin VI, human, the isoform containing both the long insert (LI) and short insert (SI); probably Myosin VI FL-SNAP (C-terminal SNAP, FLAG and 6X-His tags); Assay buffers held 10 uM calmodulin; The surface gliding assays used dark myosin VI FL-FLAG; also called Cy3-myosin VI; myosin VI FL

Key:
myosin VI CBD = myosin VI CBD (UniProt Q64331); details: cited from earlier work
[1] = target: B3; assay: single-molecule TIRF binding assay; adaptor-GFP held through GFP nanobody-SNAP on DNA nanotubes; Cy3-labeled myosin VI at 50 pM in AB.BSA.Cam; 20 Hz for 3 min; bound and rebinding times fitted to a single-exponential decay; details: both partners purified
[2] = target: T1, Myosin VI cargo-binding domain (CBD) with C-terminal mCerulean (human, UniProt Q9UM54 991-1294, C-terminal mCerulean omitted. Limits are those printed for the Kd FRET assay (CBD 991-1294, LI+SI isoform of 1294 aa); the construct list instead gives 1030-1284.); assay: FRET or BRET; bimolecular FRET titration in solution; CBD-mCer held constant at 30 nM, increasing DAB2-MIR-mCit titrated in; excitation 430 nm, cross-excitation spectra subtracted; details: both partners purified
T1 chain: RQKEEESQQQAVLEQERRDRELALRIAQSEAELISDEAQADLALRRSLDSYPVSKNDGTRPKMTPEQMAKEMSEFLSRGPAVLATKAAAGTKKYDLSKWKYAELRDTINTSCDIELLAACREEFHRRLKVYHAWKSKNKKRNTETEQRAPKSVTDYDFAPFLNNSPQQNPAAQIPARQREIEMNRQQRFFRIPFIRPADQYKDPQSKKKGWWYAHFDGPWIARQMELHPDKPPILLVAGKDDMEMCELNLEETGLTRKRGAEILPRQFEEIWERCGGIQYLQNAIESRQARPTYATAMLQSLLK

[3] = target: B1; assay: single-molecule TIRF binding assay; adaptor-GFP held through GFP nanobody-SNAP on DNA nanotubes; Cy3-labeled myosin VI at 50 pM in AB.BSA.Cam; 20 Hz for 3 min; bound and rebinding times fitted to a single-exponential decay; details: both partners purified

myosin VI CBD, sequence (Q64331 1137-1262): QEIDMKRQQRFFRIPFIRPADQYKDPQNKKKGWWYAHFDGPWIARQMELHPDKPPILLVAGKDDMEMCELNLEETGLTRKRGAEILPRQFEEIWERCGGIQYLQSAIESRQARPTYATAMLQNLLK

**Q.** Which Kd (myosin VI CBD) does the source give for Dab2 MIR (from UniProt P98082) here?
**A.** 500 nM

**Q.** With B1 as the molecule, how does the koff [1] read?
**A.** 0.91 s⁻¹

B2: Dab2 myosin interacting region (MIR) with C-terminal mCitrine (domain or fragment, human, UniProt P98082 675-713, looked up)
chain: SSGTLSAFASYFNSKVGIPQENADHDDFDANQLLNKINE-mCitrine
notes: Dab2, human, a.a; fluorophore joined through a flexible (Gly-Ser-Gly) x 2 repeat; Cloned into pBiex1; also called DAB2-MIR-mCit; mCit-MIR; not shown: mCitrine, C-terminal, kept
**Q.** Which Kd [2] does the source give for B2 here?
**A.** ~184 nM

**Q.** For B3, which “half-life of the interaction” value [3] is on record?
**A.** ~1.2 s
